{"source": "patent US20250116658", "key": {"[1]": {"tested_on": "MMP9 protease cleavable linker PLGLAG, synthetic peptide fluorogenic probe"}, "[2]": {"tested_on": "GzmB protease cleavable linker IEFDSG, synthetic peptide fluorogenic probe"}, "[3]": {"tested_on": "Thrb protease cleavable linker LVPRGSG, synthetic peptide fluorogenic probe"}, "[4]": {"tested_on": "Thrb substrate peptide (candidate 1) LVSPRSG, fluorogenic peptide"}}}
{"substance": "Granzyme B (GzmB) protease", "values": [{"measurement": "cleavage of synthetic peptide fluorogenic probe (non-corresponding pair: not cleaved)", "setting": "[1]", "result": "specific cleavage was shown by only the corresponding proteases"}, {"measurement": "cleavage of synthetic peptide fluorogenic probe (corresponding pair: cleaved)", "setting": "[2]", "result": "specific cleavage was shown by only the corresponding proteases"}, {"measurement": "cleavage of synthetic peptide fluorogenic probe (non-corresponding pair: not cleaved)", "setting": "[3]", "result": "specific cleavage was shown by only the corresponding proteases"}]}
{"substance": "Thrombin (Thrb) protease", "values": [{"measurement": "cleavage of synthetic peptide fluorogenic probe (non-corresponding pair: not cleaved)", "setting": "[1]", "result": "specific cleavage was shown by only the corresponding proteases"}, {"measurement": "cleavage of synthetic peptide fluorogenic probe (non-corresponding pair: not cleaved)", "setting": "[2]", "result": "specific cleavage was shown by only the corresponding proteases"}, {"measurement": "cleavage activity in fluorogenic assay", "setting": "[4]", "result": "showed higher cleavage activity than the original Thrb cleavable sequence design (LVPRGSG (SEQ ID NO: 23))"}, {"measurement": "cleavage of synthetic peptide fluorogenic probe (corresponding pair: cleaved)", "setting": "[3]", "result": "specific cleavage was shown by only the corresponding proteases"}]}
{"substance": "matrix metallopeptidase 9 (MMP9)", "values": [{"measurement": "cleavage of synthetic peptide fluorogenic probe (corresponding pair: cleaved)", "setting": "[1]", "result": "specific cleavage was shown by only the corresponding proteases"}, {"measurement": "cleavage of synthetic peptide fluorogenic probe (non-corresponding pair: not cleaved)", "setting": "[2]", "result": "specific cleavage was shown by only the corresponding proteases"}, {"measurement": "cleavage of synthetic peptide fluorogenic probe (non-corresponding pair: not cleaved)", "setting": "[3]", "result": "specific cleavage was shown by only the corresponding proteases"}]}
